Molecular target: histone H4 N-terminus, 1-30 (UniProt P62805)
Assay: biotin-peptide pulldown, blot
Details: reference: wild type ZMYND8; sites S486,S490

binding against the reference: stronger
Substance: ZMYND8 (from UniProt Q9ULU4) 2SA (S486A/S490A)

Reference: article PMC9057599
